B1: Protein PTHB1 (Homo sapiens), Q3SYG4 (parent)
chain: MSLFKARDWWSTILGDKEEFDQGCLCLANVDNSGNGQDKIIVGSFMGYLRIFSPHPAKTGDGAQAEDLLLEVDLRDPVLQVEVGKFVSGTEMLHLAVLHSRKLCVYSVSGTLGNVEHGNQCQMKLMYEHNLQRTACNMTYGSFGGVKGRDLICIQSMDGMLMVFEQESYAFGRFLPGFLLPGPLAYSSRTDSFLTVSSCQQVESYKYQVLAFATDADKRQETEQQKLGSGKRLVVDWTLNIGEQALDICIVSFNQSASSVFVLGERNFFCLKDNGQIRFMKKLDWSPSCFLPYCSVSEGTINTLIGNHNNMLHIYQDVTLKWATQLPHIPVAVRVGCLHDLKGVIVTLSDDGHLQCSYLGTDPSLFQAPNVQSRELNYDELDVEMKELQKIIKDVNKSQGVWPMTEREDDLNVSVVVSPNFDSVSQATDVEVGTDLVPSVTVKVTLQNRVILQKAKLSVYVQPPLELTCDQFTFEFMTPDLTRTVSFSVYLKRSYTPSELEGNAVVSYSRPTDRNPDGIPRVIQCKFRLPLKLICLPGQPSKTASHKITIDTNKSPVSLLSLFPGFASQSDDDQVNVMGFHFLGGARITVLASKTSQRYRIQSEQFEDLWLITNELILRLQEYFEKQGVKDFACSFSGSIPLQEYFELIDHHFELRINGEKLEELLSERAVQFRAIQRRLLARFKDKTPAPLQHLDTLLDGTYKQVIALADAVEENQGNLFQSFTRLKSATHLVILLIALWQKLSADQVAILEAAFLPLQEDTQELGWEETVDAAISHLLKTCLSKSSKEQALNLNSQLNIPKDTSQLKKHITLLCDRLSKGGRLCLSTDAAAPQTMVMPGGCTTIPESDLEERSVEQDSTELFTNHRHLTAETPRPEVSPLQGVSE
partner: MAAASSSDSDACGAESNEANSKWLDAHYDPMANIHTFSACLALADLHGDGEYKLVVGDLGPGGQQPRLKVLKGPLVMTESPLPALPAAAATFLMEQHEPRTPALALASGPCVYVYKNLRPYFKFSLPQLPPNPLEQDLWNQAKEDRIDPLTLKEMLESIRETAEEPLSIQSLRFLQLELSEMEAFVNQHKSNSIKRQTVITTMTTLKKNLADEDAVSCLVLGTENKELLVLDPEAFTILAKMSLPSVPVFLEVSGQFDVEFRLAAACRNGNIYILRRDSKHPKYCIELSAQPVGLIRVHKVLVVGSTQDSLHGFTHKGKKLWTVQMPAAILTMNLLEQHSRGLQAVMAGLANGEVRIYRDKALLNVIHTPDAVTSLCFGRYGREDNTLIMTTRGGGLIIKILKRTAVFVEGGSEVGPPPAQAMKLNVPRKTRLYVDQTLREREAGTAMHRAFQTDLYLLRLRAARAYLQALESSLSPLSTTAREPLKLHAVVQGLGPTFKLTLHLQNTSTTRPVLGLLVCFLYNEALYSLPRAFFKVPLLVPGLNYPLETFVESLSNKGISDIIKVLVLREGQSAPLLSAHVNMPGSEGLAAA
B2: Protein PTHB1 (Homo sapiens), Q3SYG4 (parent)
chain: B1 chain
partner: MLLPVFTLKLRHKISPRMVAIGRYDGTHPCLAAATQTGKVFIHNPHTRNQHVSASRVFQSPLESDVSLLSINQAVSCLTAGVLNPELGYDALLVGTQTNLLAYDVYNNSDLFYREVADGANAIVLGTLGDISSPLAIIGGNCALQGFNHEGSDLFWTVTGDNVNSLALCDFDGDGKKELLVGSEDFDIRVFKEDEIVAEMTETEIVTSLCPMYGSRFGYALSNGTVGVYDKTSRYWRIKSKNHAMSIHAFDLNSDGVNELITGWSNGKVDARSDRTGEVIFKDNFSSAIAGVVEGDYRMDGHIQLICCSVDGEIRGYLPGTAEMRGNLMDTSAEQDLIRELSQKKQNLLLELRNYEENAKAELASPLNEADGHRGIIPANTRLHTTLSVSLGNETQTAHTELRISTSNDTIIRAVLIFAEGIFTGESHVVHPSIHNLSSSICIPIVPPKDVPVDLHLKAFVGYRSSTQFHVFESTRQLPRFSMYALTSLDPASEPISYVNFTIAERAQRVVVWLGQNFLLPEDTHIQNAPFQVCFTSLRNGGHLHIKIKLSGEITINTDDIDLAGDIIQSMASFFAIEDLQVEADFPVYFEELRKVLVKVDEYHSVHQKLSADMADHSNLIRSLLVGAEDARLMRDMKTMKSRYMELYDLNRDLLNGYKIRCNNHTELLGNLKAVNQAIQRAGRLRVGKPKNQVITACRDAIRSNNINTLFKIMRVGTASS

Variants of: B1
Conditions: with bbs1_human BBS1, Q8NFJ9

| Variant | effect of a mutation on the interaction |
| --- | --- |
| E887A | with no effect |
| E887K | with no effect |
| N866E | with no effect |
| N866K | with no effect |
| N866A | with no effect |
| P875E | with no effect |
| P875A | with no effect |
| P875K | with no effect |
| L882E | with no effect |
| L882K | with no effect |
| L882A | with no effect |
| F864E | with no effect |
| F864K | with no effect |
| L870A | with no effect |
| L870E | with no effect |
| L870K | with no effect |
| P877E | with no effect |
| P877A | with no effect |
| P877K | with no effect |
| E878A | with no effect |
| E878K | with no effect |
| H869E | with no effect |
| H869A | with no effect |

| Variant | effect of a mutation on the interaction |
| --- | --- |
| H869K | with no effect |
| T871K | with no effect |
| T871E | with no effect |
| T871A | with no effect |
| S886E | with no effect |
| S886K | with no effect |
| S886A | with no effect |
| E873K | with no effect |
| E873A | with no effect |
| P881A | with no effect |
| P881E | with no effect |
| P881K | with no effect |
| T874K | with no effect |
| T874E | with no effect |
| T874A | with no effect |
| V885E | with no effect |
| V885K | with no effect |
| V885A | with no effect |
| R868K | with no effect |
| R868E | with no effect |
| R868A | with no effect |
| T865A | with no effect |
| T865K | with no effect |

| Variant | effect of a mutation on the interaction |
| --- | --- |
| T865E | with no effect |
| A872K | with no effect |
| A872E | with no effect |
| Q883K | with no effect |
| Q883A | with no effect |
| Q883E | with no effect |
| G884K | with no effect |
| G884A | with no effect |
| G884E | with no effect |
| H867E | with no effect |
| H867K | with no effect |
| H867A | with no effect |
| S880A | with no effect |
| S880K | with no effect |
| S880E | with no effect |
| V879K | with no effect |
| V879E | with no effect |
| V879A | with no effect |
| R876A | with no effect |
| R876K | with no effect |
| R876E | with no effect |

Variants of: B2
Conditions: with bbs2_human BBS2, Q9BXC9

| Variant | effect of a mutation on the interaction |
| --- | --- |
| P438K | with no effect |
| P438E | with no effect |
| P438A | with no effect |
| V413E | with no effect |
| V413A | with no effect |
| V413K | with no effect |
| S425A | with no effect |
| S425K | with no effect |
| S425E | with no effect |
| E431K | with no effect |
| E431A | with no effect |
| S418E | with no effect |
| S418A | with no effect |
| S418K | with no effect |
| S439A | with no effect |
| S439K | with no effect |
| S439E | with no effect |
| V415K | with no effect |
| V415A | with no effect |
| V415E | with no effect |
| E408K | with no effect |
| E408A | with no effect |
| E406A | with no effect |
| E406K | with no effect |
| V444E | with no effect |
| V444K | with no effect |
| V444A | with no effect |
